Laboratory results as given in the nanobody polyreactivity screen of Harvey et al. (2022).

Experiment: yeast display, Sf9 membrane polyspecificity reagent, FACS + sequencing; frameworks hold sequencing errors
Summary of the method: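 Using colony PCR, genes from sorted yeast display clones were amplified, then sequenced on MiSeq at 2 × 250 and filtered by CDR length. The clones had been stained with 10% biotinylated, detergent-solubilized Sf9 membrane reagent for 1 hour at 4 °C and sorted by FACS into low and high (top ~1%) gates on anti-HA and streptavidin fluorescence. Polyreactivity labels come from the gate of origin.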

Sequence | polyreactivity (PSR sort gate)
QVQLVESGGGLVQAGGSLRLSCAASGSTLGSNTMGWYRQAPGKERELVATISRRGGSTYYADSVKGRFTISRDNAKNTVYLQMNSLKPEDTAVYYCAAPPVYKFTNGDYRSTFFHWGQGTQVTVSS | high polyreactivity
QVQLVETGGGLVHAGGSLRLSCAASGSIFGYYTMGWYIQAPGKERELFAAITYSGGSTYYADSVKGRFTISRDNAKNTVYLQMNSLKPDDTAVYYCNAKSAAHRYVRRHDYWGQGTQVTVSS | low polyreactivity
QVQHVESGGGLVQAGGSLRLSCAASGSTFKHNAMGWSRQAPGKERELVAGISWGGSSTYYADSVKGRFTISRDKAKNTVYLQMNSLKPEDTAVYYCAKGGYRRYGYDYWGQGTQVTVSS | low polyreactivity
QVQLVESGGGLVQEGGSLRLSCAASGTIFGIYAMGWYRKAPGKERELVAAISKSGGGTYYADSVKGRFTISRDNSKNTVFLQMNSLKPEDTAVNYCNVYVSKYRRFEYWGQGTQVTVSS | high polyreactivity
QVQLLESGGGLVPARGSLRLSCAASGRIFPQYVMGWYRQAPGKEREFVATISYSGGRTYYADSVKGRFTISRDNAMNTVYVQMNSLKPEDTAVYDCAAGTSAGWADDYWGQGTQVTVSS | high polyreactivity
QVQLVESGGGLVQAGGSLRLSCAASGITFRKYVMGWYRQAPGKERELVATITRNGGTTNYADSVKGRFTISRDNAKNTVYLQMNSLKPEDTAVYYCAAVRRDYDDVYTEYWGQGTQVTVSS | high polyreactivity
QVQLVESGGGLVQAGGSLRLSCAASGSTFTWYAMGWYRQAPGKERELVARINFSGGSTYADSVKGRFTISRDNAKNTVYLQMNSLKPEDTAVYYCAAVYPGRKARRKYDYWGQGTQVTVSS | low polyreactivity
QVQLVESGGGLVQAGGSLRLSCSASGFIFTLYAMGWYRQAHGKERELVASIRGSGVNTYYADSVKGRFTISRDNAKNTDYLQMNSLKPEDTAVYYCAARTYRRPYYSWGQGTQVTVSS | high polyreactivity
QVQLVESGGGLVQAGGSLRLSCAASGFTFRRYDMGWYRQAPGKERELVATINRGGSTDYADSVKGRFTISRDNAKNTVYLQLNSLKPEDTAVYYCATRYYSSRTWSEYYYWGQGTQVTVSS | high polyreactivity
QQQLVESGGGVVQAGGSLRLSCAASGSTFSGYAMGWYIPAPGKERELVAAIRKSGGSKYYADSVKGRFTISRDNAKNTVYLQMNSLKPEDTAVYYCNARRDLQYSQYKRYGYWGQGTQVNVSS | low polyreactivity
QVQLVESGGGLVQAGGSLRLSCAASGRTFYSYAMGWYRPAPGQERELVARITWSGGTYYADSVKGRFTISRDNAKTTVYLQMNSLKPEDTAVYYCNKYRPYGRIYHLAYGRDYWGQGTQVTVSS | high polyreactivity
QVQLVESGGGLVQAGGSLRLSCAASGFTFSRYTMGWYRQAPGKERELVAAITSSGGSTYYADSVKGRFTISRDNAKNTVYLQMNSLKPEDTAVYYCAARRRESDQRGYCGQGTQVTVSS | high polyreactivity
QVQLVESGGGLVQAGGSLRLSCAASGRTFFLYAMGWYRQAPGKERELVAAITDGGSITYYADSVKGRFTISRDNAKNTVYLQMNSLKPEDTAVYYCAAEYWHVYDGDYWGYDYWGQGTQVTVSS | high polyreactivity
QVQLVESGGGLVQAGGSLRLSCAASGIIFRYNALGWYRQAPGKERELVSPISVSGGSTYYADSVKGRFTISRDNAKNTVYLQMNSLQPEDTAVYYCAALLYRYGVHQAEHDYWGQGTQVTVSS | high polyreactivity
QVQLVESGGGLVQAGGSLRLSCAASGITFRRNAMGWYRQAPGTERELVAGISGRGGSTYYADSVKGRFTISRDNAKNTVYLQMNSLKPEDTAVYYCAAVRFRTPTLEYWTRYDYWGQGTQVTVSS | high polyreactivity
QVQLVESGVCLVQAGRSLRLSCAASGRTFGYYAMGWYRQAPGKERELVAGITLSGGSTYYADSVKGRFTISRDNAKNTVYLQMNSLKPDDTAVYYCAARRRGRAGRDDYWGQGTQVTVSS | high polyreactivity
QVQLVESGGGLVQAGGSLRLSCASSGFIFASYAMGWYRQAPGKERELVAAISYRGGTTYYADSVKGRFTISRDNAKNTVYLQMNSLKPEDTAVYYCAADSPENRYNYWGQGTQVTVSS | high polyreactivity
QDQLVESAGGLVQAGGSLSLSCAATGFTFYYNAMGWYRPAAGKERELVASITRSGGRTYYADSVKGRFTISRDNAKNTVYLQMNSLKPEDTAVFYCARRYPGGYYWGQGTQVTVSS | high polyreactivity
QVQLVESGGGLVQAGGSLRLSCAASGSNFGYYAMGWYRQAPGKERELVAAISWRGGSTYYADSVTGRFTISRDNAKNTVYLQMNSLTPEDTAVYDCAAPVGNYGSFDYWGQGTQVTVSS | low polyreactivity
QVQLVESGGGLVQAGGSLLLSCAASGGTLRYYAMGWYRQAPGKEREFVASISRSGGSTYYADSVKGRFTISRDNAKNTVYLQMNSLKPEDTAVYYCAAYWSPGYTTRRGYWGQGTQVTVSS | high polyreactivity
QVQLVESGGGLVQAGGSLRLSCAASGFTFENYAMGWYRQAPGKEREFVAAISTRGTSTYYADSVKGRFTISRDNAKNTVYLQMNSLKPEDTAVYYCAARFYYWGQGTQVTVSS | high polyreactivity
QVQLVESVGGLVQAGGSLRLSCAASGSTFADYVMGWYRQAPGKERELVAAITSSGGSTYYADSVNGRFTISRDNAKNTVYLQMNSLKPEDTAVYYCAAQQSPSVDYWGQGTQVTVSS | low polyreactivity

Sequence | polyreactivity (PSR sort gate)
QVQLVESGGGLVQAGGSLRLSCAASGRIFGRNAMGWYRQAPGKEREFVAGITTNGGRTYYADSVKGRFTISRDYAKNSVFLQMNSLIPEDTAVYYWAAVRYYFLKYYYWGQGTQVTVSS | high polyreactivity
QVQLVASGGGLVQAGGSLRLSCAASGFTFYYYAMGWYRKAPGKERELVAGISGRGGTTYYADSVKGRFTISRDNAKNTFYLQLNSLKPEDTAVYDCAARKVRARSKFEYWGQGNQVTVSS | high polyreactivity
QVQLVESGGGLVQAGGSLRLSCAASGSTFYYNAMGWYRQAPGKERELVAAISKRGGTTSYADSVKGRFTISRDNAKNTVFLQMNSLKPEDTAVYYCAAQTYLRQFYRYDWGQGTQVTVSS | high polyreactivity
QVQLVESGGGLVQAGGSLRLSCAASGSTFTSSAMGWYRQAPGKERELVAAISKSGGSTYYADSVKGRFTLSRDNAKNTVYLQMNSLKPEDTAVYYCAARYNVRSYSTSRFDYWGQGTQVTVSS | low polyreactivity
QVQLVESGGGLVQAGGSLRLSCAASGSILRVYAMGWYRQAPGKERELVAAISWGDGRTYYADSVKGRFTISRDNAKNTDYLQMNSLKPEDTAVYYCNADVFIQYWGVLIREYDYWGQGTQVTVSS | high polyreactivity
QVQLVESGGGLVQAGGSLRLSCAASGIIFVENAMGWYRQAPGKERELVASGDSTYYADSVKGRFTISRDNAKNTVYLQMNSLKPEDTAVYYCAVDHYSARLLARYDYWGQGTQVTVSS | low polyreactivity
QVQLVESGGGLVQAGGSLRLSCAASGNTFYRYAMGWYRQAPGKERELVAAISWSGSSTYYADSVKGRFTISRDNAKNTVYLQMNSLKPEDTAVYYCAAGTYDGGYHYDYWGQGTQVTVSS | high polyreactivity
QLQLVESGGGLVQAGGSLRLSCAASGFIFETYAMGCYIQAPGKERELVAAISRGASTYYADSVKGRFTISRDNAKNTVYLQMNSLKPEYTAVYYCAAKRLSWHRYGYWGQGTQVTVSS | low polyreactivity
QVQLGESGGALVQAGGSLRLSCAASGSIYWYKDMGWYTEATGKEMELVAAINSGGDTNYADSVKGRFTISRDNAKNTVYLQMNSLKPEDTAVFYCAATLLSRFYLSNRRSAYNYWGQGTLVTVSS | high polyreactivity
QVQLVESGGGLVQAGGSLRLSCAASGSTLRWYTMGWYRQAPGKESELVATNSRGGTTNYADSVKGRFTISRDNAKNTVYLQMNSLKPEDTAVYYCASRDFWWSRRIFGYWGQGTHVTVSS | high polyreactivity
QVQLVESGGGLVHAGGSLRLSCAASGITLVRYAMGWYRQAPGKERELVAAISSSGGSTYYADSVKGRFTISRDNAKNTVYLQMNSLKPEDTAVYYCNAYVHSRRVEFNYWGQGTQVTVSS | high polyreactivity
QVQIVESGGVLVQAGGSLRLSCAASGRIFGSYAMGWYRQAPGKERELVAGIRSVGSTNYADSVKGRFTISRDNEKNTVYLQMNSLKPEDTAVYYCAACLWHPTFGYWGQGTQVTVSS | low polyreactivity
QVQLVESGGGLVQAGGSLRLSCAASGSNFGSYTMGWYRQAPGKERELDAAITSGGGNTYYADSVKGRFTISRDNAKNTVYLQMNSLKPEDTAVYYCNATVRGRNALGRVQKYYYWGQGTQVTVSS | high polyreactivity
QVQLVESGGGLVQAGGSLRLSCAASGSTFHRYAMGWYRQAPGKERELVARINGSGGSTYYADSVKGRFTISRDNSKNTVYLQMNSLIPEDTAVYYCAADGLYYTYGYDYWGQGTQVTVSS | low polyreactivity
QVQLVESGGGLVQAGGSLRLSCAASGRIFYRYAMGWYRQAPGKERELVATISSGGSTNYADSVKGRFTISRDNAKNTVYLQMNSLKPEDTAVYYCARQSLRYSYVSRDYWGQGTQVTVSS | low polyreactivity
QVQLVESGGGLVQAGGSLRLSCAASGITIYGNAMGWYRQAPGKERELVAAITFSGGITYYADSVKGRFTISRDNAKNTVYLQMNSLKPEDTAVYYCATDPIGGWTRPQRYGDDYWGQGTQVTVSS | low polyreactivity
QVQLVESGGGLVQAGGSLRLSCAASGRTFPYNAMGWYRQAPGKERELVAVISSSGGSTYYADSVKGRFTISRDNAKNTVYLQMNSLKPEDTAVYYCNTRPYYYRRPGYRYSGYDYWGQGTQVTVSS | high polyreactivity
QVQLVESGGGLVQAGGSLRLSCAASGRTFGYNAMGWYRQAPVKERELVAAIRTIGDSTYYADSVKGRFTISRDNAKNTVYLQMNSLKPEDTAVFYCAARKLRSRYDYWGQGTQVTVSS | high polyreactivity
QVQLVESGGGLVQAGGSLRLSCAASGSTFEPYAMGWYRQAPGKERELVAAISWSGGSTYYADSVKGRFTISRDNAKNTVYLQMNSLQPEDTAVYYCAAESGVPYYLPVVIYYYWGQGTQVTVSS | high polyreactivity
QVHLVESGGCLVQAGGSLRLSCSASRSIFPNNDMGWYRQQPGKERELVPAITTRGTSTYYAESVKGRFTISRDYAKNTVYLQMKSLKPEDTAVYFCAVGRRGYSAGGVAYYYWGQGTQVTVSS | low polyreactivity
QVQLVETGGRLVQAGGSLRLSCAASGSTFDIYVIGWSRQAPGKERELVAAISRVGNTSYADSVKGRFTISRDNAKNTVYLQMNSLIPEDTAVYYCAADAPSWYDRQYDYWGQGTQVTVSS | low polyreactivity
